From patent US20170151343A1 (AbbVie / Abbott, published 2017)
Changes are numbered by the printed parent chain. Numbers in names are those of the source.

B1: muAD210.40.9 (antibody, V domains shown)
VH: QVQLQQSGAELVRPGTSVKISCKASGYDFTNYWLGWVKQRPGHGLEWIGDIYPGGGNTYYNEKLKGKATLTADKSSSTAYIHLISLTSEDSSVYFCARWGDKKGNYFAYWGQGTLVTVSA
VL: QIVLTQSPAIMSASLGERVTMTCTASSSVYSSYLHWYQQKPGSSPKLWIYSTSNLASGVPGRFSGSGSGTSYSLTISSMEAEDAATYYCHQYHRSPTFGGGTKLEIK
notes: Murine antibody; Compared with a muIgG2a isotype control
B2: hu139.10 (antibody, V domains shown)
VH: EVQLVESGGGLVQPGGSLRLSCAVSGFSLTSYGVHWVRQATGKGLEWLGVIWAGGSTNYNSALMSRLTISKENAKSSVYLQMNSLRAGDTAMYYCATHMITEDYYGMDYWGQGTTVTVSS
VL: DIVMTQSPDSLAVSLGERATINCKSSQSLLNSRTRKNYLAWYQQKPGQSPKLLIYWASTRESGVPDRFSGSGSGTDFTLTISSLQAEDVAVYYCKQSYNLPTFGGGTKVEIK
notes: Humanized full-length antibody; Compared with a huIgG1 isotype control
B3: huAD208.4.1 (antibody, V domains shown)
VH: EVQLVQSGAEVKKPGSSVKVSCKASGFTFTDYYIHWVKQAPGQGLEWIGLVYPYIGGTNYNQKFKGKATLTVDTSTTTAYMEMSSLRSEDTAVYYCARGDNKYDAMDYWGQGTTVTVSS
VL: DIVLTQSPDSLAVSLGERATINCRASQSVSTSSYSYMHWYQQKPGQPPKLLIKYASSLESGVPDRFSGSGSGTDFTLTISSLQAEDVAVYYCEQSWEIRTFGGGTKVEIK
notes: Humanized full-length antibody, compared with a huIgG1 isotype control
B4: huAD208.14.1 (antibody, V domains shown)
VH: B3 VH with T58S, N59S, K63Q, T77S, M83L, K102N
VL: B3 VL with N22S, S33T, S35N, I52V, S57N, E93H, Q94H, S95T
notes: as for B2
B5: huM25-mcMMAF-E2 (antibody, human IgG1, kappa)
heavy: not shown
light: DIQMTQSPSSLSASVGDRVTITCRASQDISNYLNWYQQKPGGAVKFLIYYTSRLHSGVPSRFSGSGSGTDYTLTISSLQPEDFATYFCQQGEALPWTFGGGTKVEIKRTVAAPSVFIFPPSDEQLKSGTASVVCLLNNFYPREAKVQWKVDNALQSGNSQESVTEQDSKDSTYSLSSTLTLSKADYEKHKVYACEVTHQGLSSPVTKSFNRGEC
modifications: mcMMAF (maleimidocaproyl monomethyl auristatin F) on cysteines of reduced interchain disulfides, two drugs per antibody (E2); which chain carries them is not stated
B6: huM25-S239C-PBD-E2 (antibody, human IgG1, kappa)
heavy: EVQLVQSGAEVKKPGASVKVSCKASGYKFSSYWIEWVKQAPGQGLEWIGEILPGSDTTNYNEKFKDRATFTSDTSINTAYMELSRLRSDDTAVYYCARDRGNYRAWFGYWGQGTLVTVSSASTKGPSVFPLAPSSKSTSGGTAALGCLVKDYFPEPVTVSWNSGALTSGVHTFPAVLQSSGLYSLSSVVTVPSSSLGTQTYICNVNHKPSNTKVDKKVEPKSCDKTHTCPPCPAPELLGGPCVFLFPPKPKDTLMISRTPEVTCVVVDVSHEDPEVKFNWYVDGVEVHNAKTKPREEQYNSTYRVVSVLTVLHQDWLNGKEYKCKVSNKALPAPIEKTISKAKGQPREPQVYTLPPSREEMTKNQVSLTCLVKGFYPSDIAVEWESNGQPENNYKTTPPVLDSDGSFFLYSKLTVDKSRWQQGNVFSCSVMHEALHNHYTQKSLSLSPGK
light: B5 light
modifications: vaPBD (Val-Ala pyrrolobenzodiazepine dimer synthon) on the engineered cysteine S239C, DAR2
B7: huM25 (antibody, human IgG1, kappa)
heavy: not shown
light: B5 light
notes: Humanized IgG1 kappa; also called huM25-AF647
B8: huM25-vcMMAE-E2 (antibody, human IgG1, kappa)
heavy: not shown
light: B5 light
modifications: vcMMAE (maleimidocaproyl-Val-Cit-PABA-monomethyl auristatin E) on cysteines of reduced interchain disulfides, two drugs per antibody (E2); which chain carries them is not stated
B9: huAD208.12.1 (antibody, V domains shown)
VH: EVQLVQSGAEVKKPGSSVKVSCKASGYTFTNYWMHWVKQAPGQGLEWIGMIHPNSGSTKHNEKFRGKATLTVDESTTTAYMELSSLRSEDTAVYYCARSDFGNYRWYFDVWGQGTTVTVSS
VL: EIVLTQSPATLSLSPGERATLSCRASQSSSNNLHWYQQKPGQAPRVLIKYVSQSISGIPARFSGSGSGTDFTLTISSLEPEDFAVYFCQQSNSWPFTFGQGTKLEIK
notes: Humanized full-length antibody
B10: muAD209.9.1 (antibody, V domains shown)
VH: QIQLVQSGPELKKPGETVKISCKASGFAITNFGMNWVKQAPGKGLKWMGWINLYTGEPTFADDFKGRFAFSLETSASTAYLQINNLKNEDTVIYFCARKGETYYRYDGFAYWGQGTLVTVSA
VL: DIVMTQAAPSVPVTPGESVSISCRSSKSLLHSNGNTHLYWFLQRPGQSPQLLIYRMSNLASGVPDRFSGSGSGTAFTLRISRVEAEDVGVYYCMQLLEYPYTFGGGTKLEIE
notes: as for B1

What was measured:
[1] = biological target: T1, human LRRC15 (leucine-rich repeat-containing protein 15), expressed on cells (human, UniProt Q8TF66 22-581); experiment: flow cytometry on U118MG cells
T1 construct: Cells: U118MG (endogenous), HCT116-huLRRC15, 3T12-huLRRC15 transfectants, TGFbeta-treated A549, human BM-MSC; also called huLRRC15; endogenous huLRRC15
T1 sequence: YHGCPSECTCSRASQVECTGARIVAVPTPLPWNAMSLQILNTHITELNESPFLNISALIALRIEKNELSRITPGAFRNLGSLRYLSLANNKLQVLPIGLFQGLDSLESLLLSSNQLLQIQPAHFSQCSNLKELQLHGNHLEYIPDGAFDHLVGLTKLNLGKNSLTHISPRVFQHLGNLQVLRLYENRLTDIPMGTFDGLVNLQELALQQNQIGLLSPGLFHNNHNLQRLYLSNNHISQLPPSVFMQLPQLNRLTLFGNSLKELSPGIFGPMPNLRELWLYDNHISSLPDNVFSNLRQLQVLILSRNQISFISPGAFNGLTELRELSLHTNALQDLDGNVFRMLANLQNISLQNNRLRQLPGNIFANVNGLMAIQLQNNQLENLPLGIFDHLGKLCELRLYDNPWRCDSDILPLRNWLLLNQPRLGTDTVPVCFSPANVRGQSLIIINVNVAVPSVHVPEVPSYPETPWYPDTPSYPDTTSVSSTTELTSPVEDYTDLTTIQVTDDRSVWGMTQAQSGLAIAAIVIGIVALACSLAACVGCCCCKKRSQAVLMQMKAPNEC
Excerpt: Isotype control antibodies (mouse or human) were used as appropriate.

[2] = biological target: T2, huLRRC15-Fc fusion protein (huLRRC15 ECD residues 22 to 526 of SEQ ID NO:3 fused to Fc) (human, UniProt Q8TF66 22-526); experiment: ELISA on coated huLRRC15-ECD-Fc
T2 construct: Coated on the ELISA plate at 2 ug/mL; also called huLRRC15-ECD-Fc; huLRRC15 fusion ECD protein
T2 sequence: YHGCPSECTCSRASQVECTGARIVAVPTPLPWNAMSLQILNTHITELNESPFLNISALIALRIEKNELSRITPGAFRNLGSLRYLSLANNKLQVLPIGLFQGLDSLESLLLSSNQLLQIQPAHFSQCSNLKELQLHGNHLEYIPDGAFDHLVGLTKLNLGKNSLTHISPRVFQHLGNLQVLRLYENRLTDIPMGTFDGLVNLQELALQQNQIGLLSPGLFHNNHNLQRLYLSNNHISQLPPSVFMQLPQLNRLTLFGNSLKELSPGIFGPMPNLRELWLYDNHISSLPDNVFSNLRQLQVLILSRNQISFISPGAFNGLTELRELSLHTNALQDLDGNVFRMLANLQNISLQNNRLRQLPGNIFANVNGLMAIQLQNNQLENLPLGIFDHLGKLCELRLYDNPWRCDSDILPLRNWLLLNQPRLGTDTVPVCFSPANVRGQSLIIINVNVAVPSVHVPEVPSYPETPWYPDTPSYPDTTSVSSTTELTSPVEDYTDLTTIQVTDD
Procedure: 96-well Immulon 4HBX plates (Thermo, cat. #3855) were coated with 100 μL/well of this huLRRC15 fusion ECD protein at 2 μg/mL in carbonate-bicarbonate buffer (Thermo, cat.#28382) pH 9.4 and allowed to bind overnight at 4° C. Plates were washed three times with PBST and then incubated with various concentrations of antibodies in PBST+0.3% BSA at room temperature for one hour. […] Plates were washed three times in PBST and 100 μL of TMB (Surmodics BioFx cat.# TMBW-1000-01) was added to each well and incubated at RT until color developed (approximately 10 minutes). Reactions were stopped by the addition of 650 nm Stop Reagent for TMB (Surmodics BioFx, cat.# BSTP-0100-01), and optical density (OD) was read at 650 nm (Molecular Devices Versamax PLUS).

[3] = biological target: T1, human LRRC15 (leucine-rich …); experiment: cell-based or functional assay
[4] = biological target: T1, human LRRC15 (leucine-rich …); experiment: flow cytometry competition on U118MG cells; unlabeled antibody titrated against muM25-AF488 at 1 ug/ml, GeoMean normalized to muM25-AF488 alone

| Binder | EC50 [1] [nM] | EC50 [2] [nM] | further results |
| --- | --- | --- | --- |
| B1 | 0.08 |  |  |
| B2 | 0.28 | 0.11 |  |
| B3 | 0.29 | 0.25 |  |
| B4 | 5.25 | 0.8 |  |
| B5 |  |  | in vitro killing of HCT116-huLRRC15 cells, EC50 [3]: 0.028 nM |
| B6 |  |  | in vitro killing of A549-EMT transformed cells treated with TGFbeta, EC50 [3]: 0.01 nM |
| B7 | 0.498 | 0.26 | IC50 (read off the curve) [4]: ~0.4 µg/mL |
| B8 |  |  | in vitro killing of HCT116-huLRRC15 cells, EC50 [3]: 0.069 nM |
| B9 |  |  | binding result [1]: binds |
| B10 | 0.787 | 0.14 |  |
